Measured values from US20230265198A1 (TWIST BIOSCIENCE, published 2023).
Numbering of substitutions follows the chain as printed.

B1: NRP1-271 (antibody, IgG2, V domains shown)
VH: EVQLLESGGGLVQPGGSLRLSCAASGFTFTTYGMSWVRQAPGKGLEWVSAISGSGGTTYYADSVKGRFTISRDNSKNTLYLQMNSLRAEDTAVYYCARVGPGRSIAARQGFKRRNNWFDPWGQGTLVTVSS
VL: DIQMTQSPSSLSASVGDRVTITCRARQSISTYLNWYQQKPGKAPKLLIYSASTLESGVPSRFSGSGSGTDFTLTISSLQPEDFATYYCQQSYRTPWTFGGGTKVEIK
B2: NRP1-238 (antibody, IgG2, V domains shown)
VH: B1 VH with T28S, T30S, T31N, A50S, G53H, T57S
VL: B1 VL with R26S, T31S, Y32Q, S50R, T53R, E55Q, R93S, W96R, T97S
B3: NRP1-227 (antibody, IgG2, V domains shown)
VH: EVQLLESGGGLVQPGGSLRLSCAASGFTLRNYAMSWVRQAPGKGLEWVSALSSSGGSTYYADSVKGRFTISRDNSKNTLYLQMNSLRAEDTAVYYCARGGRGLRLQVPIVRHARKGKDYYMDVWGQGTLVTVSS
VL: B1 VL with A25P, R26S, I29V, S30T, S50G, A51S, E55Q, R93T, T94F, W96R
B4: NRP1-239 (antibody, IgG2, V domains shown)
VH: B1 VH with T28P, T30S, T31N, G33T, S35G, G53A, T57S, T58P, K65N
VL: DIQMTQSPSSLSTSVGDRVTITCRASQNIGSHLNWYQQKPGKAPKLLIYATSSLRSGVPSRFSGSGSGTDFTLTISSLQPEDFATYYCQQSYRIPLTFGGGTKVEIK
B5: NRP1-232 (antibody, IgG2, V domains shown)
VH: EVQLLESGGGLVQPGGSLRLSCAASGFTFTNYAMNWVRQAPGKGLEWVSSISGSGGRTDYADSVKGRFTISRDNSKNTLYLQMNSLRAEDTAVYYCARLKRGGTNLVRKATRYQFYGMDAWGQGTLVTVSS
VL: B1 VL with R26S, S28N, S30A, T31K, T53N, E55Q, S91N, R93K, W96Y
B6: NRP1-217 (antibody, IgG2, V domains shown)
VH: EVQLLESGGGLVQPGGSLRLSCAASGFTFGRYAMSWVRQAPGKGLEWVSSISGSGGSTYYADSVKGRFTISRDNSKNTLYLQMNSLRAEDTAVYYCARQRIKPNTPRESFFRRAYSYYGMDVWGQGTLVTVSS
VL: B1 VL with A25T, R26S, S28R, Y32S, S50G, T53N, E55Q, V58A, R93F, W96I
B7: NRP1-244 (antibody, IgG2, V domains shown)
VH: EVQLLESGGGLVQPGGSLRLSCAASGFTFTSYGMSWVRQAPGKGLEWVSTISGSGGYTYYADSVKGRFTISRDNSKNTLYLQMNSLRAEDAAVYYCALWNRYGGLSYWGQGTLVTVSS
VL: B1 VL with R26S, S30A, N34H, S50G, A51T, T53N, E55Q, W96G
B8: NRP1-252 (antibody, IgG2, V domains shown)
VH: EVQLLESGGGLVQPGGSLRLSCAASGFTFRSLAVSWVRQAPGKGLEWVSTITGSGGATYYADSVKGRFTISRDNSKNTLYLQMNSLRAEDTAVYYCARGRRGMPTPDTVRKMSKSHLYFDSWGQGTLVTVSS
VL: B1 VL
B9: NRP1-229 (antibody, IgG2, V domains shown)
VH: EVQLLESGGGLVQPGGSLRLSCAASGLTFSNFAMSWVRQAPGKGLEWVSAISGRGSSTYYADSVKGRFTISRDNSKNTLYLQMNSLRAEDTAVYYCARVMKMSRRIVGRRHRKGDGMDVWGQGTLVTVSS
VL: B1 VL with R26S, S28A, T31R, Y32S, S50G, T53A, E55Q, S56T, T94P, W96F
B10: NRP1-280 (antibody, IgG2, V domains shown)
VH: B1 VH
VL: DIQMTQSPSSLSASVGDRVTITCRASQTISNYVNWYQQKPGKAPKLLIYAASSLHAGVPSRFSGSGSGTDFTLTISSLQPEDFATYYCQQGYSTPLTFGGGTKVEIK
B11: NRP1-214 (antibody, IgG2, V domains shown)
VH: B1 VH
VL: DIQMTQSPSSLSASVGDRVTITCRASQSVSTSLNWYQQKPGKAPKLLIYGASRLQTGVPSRFSGSGSGTDFTLTISSLQPEDFATYYCQQTYSSPRTFGGGTKVEIK
B12: NRP1-14 (VHH)
VHH: EVQLVESGGGLVQPGGSLRLSCAASGFTFRNFGMGWFRQAPGKEREFVSAISPGGVERYADSVKGRFTISADNSKNTAYLQMNSLKPEDTAVYYCATVGGYDYGYYYGMDVWGQGTLVTVSS
B13: NRP1-223 (antibody, IgG2, V domains shown)
VH: EVQLLESGGGLVQPGGSLRLSCAASGFTFKKYAMSWVRQAPGKGLEWVSTISGSGRSTYYADSVKGRFTISRDNSKNTLYLQMNSLRAEDTAVYYCARDLARGTMPRGVIIPHNWFDPWGQGTLVTVSS
VL: B11 VL with S30R, T31N, S32Y, Q55H, T56S, T91S, S94G, R96Y, T97S
B14: NRP1-248 (antibody, IgG2, V domains shown)
VH: EVQLLESGGGLVQPGGSLRLSCAASGFTFSKYAMSWVRQAPGKGLEWVSSISTSGGSTYYADSVKGRFTISRDNSKNTLYLQMNSLRAEDTAVYYCARGLLRLKPERRVRTTYYYGMDVWGQGTLVTVSS
VL: B4 VL with T13A, A25T, N28S, H32Y, T51S, R55Q, R93S, I94T, L96F, T97S
B15: NRP1-262 (antibody, IgG2, V domains shown)
VH: B13 VH
VL: B1 VL with A25T, R26S, S30N, S50A, T53G, E55H, S91A, R93G, W96F
B16: NRP1-225 (antibody, IgG2, V domains shown)
VH: B3 VH with T28M, L29F, R30S, N31R, L51I, S53G, G56D, S57T, Y59H
VL: B11 VL with V29I, S30G, T31S, S32H, N34S, G50R, R53S, Q89L, S94V, R96L
B17: NRP1-211 (antibody, IgG2, V domains shown)
VH: EVQLLESGGGLVQPGGSLRLYCAASGFTFGSYGMSWVRQAPGKGLEWVSSISGSGGSTYYTDSVKGRFTISRDNSKNTLYLQMNSLRAEDTAVYYCVRALAGRRDHWGQGTLVTVSS
VL: B10 VL
B18: NRP1-235 (antibody, IgG2, V domains shown)
VH: EVQLLESGGGLVQPGGSLRLSCAASGFTFPNYAMTWVRQAPGKGLEWVSGISGSGGRIYYADSVKGRFTISRDNSKNTLYLQMNSLGAEDTAVYYCARARKFRELLRRNNYSNHYYMDVWGQGTLVTVSS
VL: B11 VL with A25T, V29I, S30G, T31N, S32Y, R53K, T56S, T91G, S94T
B19: NRP1-228 (antibody, IgG2, V domains shown)
VH: EVQLLESGGGLVQPGGSLRLSCAASGFSFSTHAMTWVRQAPGKGLEWVSTISGLGTGTYYADSVKGRFTISRDNSKNTLYLQMNSLRAEDTAVYYCARSTRGGFDYWGQGTLVTVSS
VL: B1 VL with R26G, S30R, T31S, S50A, E55Q, S56R, S91T, R93T, W96L
B20: NRP1-224 (antibody, IgG2, V domains shown)
VH: B1 VH with T30G, T31S, G33A, S35A, A50G, S52T, G53A, T57S
VL: B1 VL with R26S, S28N, S30G, T31R, S50A, E55H, Y92H, R93S, T94N, W96F
B21: NRP1-219 (antibody, IgG2, V domains shown)
VH: EVQLLESGGGLVQPGGSLRLSCAASGFPFSSYALSWVRQAPGKGLEWVSAITGSGGNTFYADSVKGRFTISRDNSKNTLYLQMNSLRAEDTAVYYCARGGQSGRPRVRGARRLDYYGMDVWGQGTLVTVSS
VL: B11 VL with V29I, T31K, R53K, T56R, T91G, S94A, R96L
B22: NRP1-216 (antibody, IgG2, V domains shown)
VH: B8 VH with T28S, S31N, L32Y, V34M, I51V, T52S, G56S, A57S, T105A, S113A
VL: B10 VL with T28S, V33L, N34S, H55S, A56G, G91T, S93T, L96Y
B23: NRP1-220 (antibody, IgG2, V domains shown)
VH: EVQLLESGGGLVQPGGSLRLSCAASGFTFRTYDMGWVRQAPGKGLEWVSAVSGSGGTTYYADSVKGRFTISRDNSKNTLYLQMNSLRAEDTAVYYCARETRRVLRRQWRRSYHSYGLDVWGQGTLVTVSS
VL: B1 VL with R26S, T31N, Y32K, S50A, E55Q, S56R, R93K, W96L
B24: NRP1-273 (antibody, IgG2, V domains shown)
VH: B17 VH
VL: B10 VL with Q27R, T28R, N31T, V33L
B25: NRP1-16 (VHH)
VHH: EVQLVESGGGLVQPGGSLRLSCAASGRTFSRYVMGWFRQAPGKEREWVATSGTGYGATYADSVKGRFTISADNSKNTAYLQMNSLKPEDTAVYYCARGWLRTGWSIWGQGTLVTVSS
B26: NRP1-137 (antibody, IgG2, V domains shown)
VH: EVQLLESGGGLVQPGGSLRLSCAASGFTFSRYAMNWVRQAPGKGLEWVSTISSGGGYTYYPDSVKGRFTISRDNSKNTLYLQMNSLRAEDTAVYYCARSYGGGFDYWGQGTLVTVSS
VL: DIQMTQSPSSLSASVGDRVTITCQASQSISSYLAWYQQKPGKAPKLLIYPKHNRPPGVPSRFSGSGSGTDFTLTISSLQPEDFATYYCQQSYKSPLTFGQGTKVEIK

These binders were tested against T1, neuropilin-1 (NRP1) on HEK293 cells overexpressing NRP1 (UniProt O14786 22-923, limits assumed) (assay: flow cytometry, HEK293-NRP1 vs HEK293).
T1 construct: whole, on cells

Going from B1 to B2, the “100 nM FACS (MFI Ratio)” value rises from 0.8 to 0.9.

First: B3
Second: B4
The “100 nM FACS (MFI Ratio)” value of the first is higher: 2.6 for the first, 0.2 for the second.

Compared with B5, B6 is higher in “100 nM FACS (MFI Ratio)” value: 1.3 for the first, 2.8 for the second.

First: B7
Second: B8
The “100 nM FACS (MFI Ratio)” value of the first is higher: 2.1 for the first, 1 for the second.

Going from B9 to B10, the “100 nM FACS (MFI Ratio)” value falls from 1.2 to 0.6.

First: B11
Second: B12
The “100 nM FACS (MFI Ratio)” value of the first is lower: 1 for the first, 15.4 for the second.

First: B13
Second: B14
The “100 nM FACS (MFI Ratio)” value of the first is higher: 12.8 for the first, 5 for the second.

Compared with B15, B16 is lower in “100 nM FACS (MFI Ratio)” value: 6.2 for the first, 1.1 for the second.

Going from B17 to B18, the “100 nM FACS (MFI Ratio)” value falls from 3.8 to 0.8.

Going from B19 to B20, the “100 nM FACS (MFI Ratio)” value falls from 3 to 1.

First: B21
Second: B22
The “100 nM FACS (MFI Ratio)” value of the first is lower: 1.2 for the first, 3.6 for the second.

Compared with B23, B24 is higher in “100 nM FACS (MFI Ratio)” value: 2.3 for the first, 6.2 for the second.

Going from B25 to B26, the “100 nM FACS (MFI Ratio)” value rises from 15.9 to 1200.
